# Paper PMC9239148 (2022)
# How the values were obtained:
# Experiment in all cases: SPR
# [1] = target: T1, Recombinant SERPINE1 protein (plasminogen activator inhibitor 1) (human, UniProt P05121 24-402)
# [2] = target: T1, Recombinant SERPINE1 protein …; remark: listed apart in the source
# [3] = target: T2, Recombinant SERPINC1 protein (antithrombin III) (human, UniProt P01008 33-464)
# [4] = target: T3, Recombinant SERPINA1 protein (alpha-1 antitrypsin) (human, UniProt P01009 25-418)
# [5] = target: T2, Recombinant SERPINC1 protein …; remark: listed apart in the source
# [6] = target: T3, Recombinant SERPINA1 protein (alpha-1 …); remark: listed apart in the source
# T1 sequence (P05121 24-402): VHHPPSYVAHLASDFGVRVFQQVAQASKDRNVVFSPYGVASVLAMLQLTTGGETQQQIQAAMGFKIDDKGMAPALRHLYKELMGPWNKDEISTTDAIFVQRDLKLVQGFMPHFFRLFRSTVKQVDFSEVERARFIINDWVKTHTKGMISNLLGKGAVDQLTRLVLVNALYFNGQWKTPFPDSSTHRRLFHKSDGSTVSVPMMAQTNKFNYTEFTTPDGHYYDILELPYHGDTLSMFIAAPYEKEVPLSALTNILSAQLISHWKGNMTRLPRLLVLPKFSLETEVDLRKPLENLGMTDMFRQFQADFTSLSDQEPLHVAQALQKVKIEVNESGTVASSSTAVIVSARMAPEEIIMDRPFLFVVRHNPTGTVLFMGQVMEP
# T2 sequence (P01008 33-464): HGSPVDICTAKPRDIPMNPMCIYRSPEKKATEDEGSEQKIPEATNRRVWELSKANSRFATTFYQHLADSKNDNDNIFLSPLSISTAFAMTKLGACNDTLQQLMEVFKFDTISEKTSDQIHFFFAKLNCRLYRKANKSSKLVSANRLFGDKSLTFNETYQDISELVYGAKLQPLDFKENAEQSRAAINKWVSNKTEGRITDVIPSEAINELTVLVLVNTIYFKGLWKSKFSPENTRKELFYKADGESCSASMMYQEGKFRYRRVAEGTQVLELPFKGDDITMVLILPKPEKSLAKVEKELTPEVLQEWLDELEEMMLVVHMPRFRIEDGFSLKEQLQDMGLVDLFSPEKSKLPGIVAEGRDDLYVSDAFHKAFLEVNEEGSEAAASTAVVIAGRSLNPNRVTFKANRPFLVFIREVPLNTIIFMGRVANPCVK
# T3 sequence (P01009 25-418): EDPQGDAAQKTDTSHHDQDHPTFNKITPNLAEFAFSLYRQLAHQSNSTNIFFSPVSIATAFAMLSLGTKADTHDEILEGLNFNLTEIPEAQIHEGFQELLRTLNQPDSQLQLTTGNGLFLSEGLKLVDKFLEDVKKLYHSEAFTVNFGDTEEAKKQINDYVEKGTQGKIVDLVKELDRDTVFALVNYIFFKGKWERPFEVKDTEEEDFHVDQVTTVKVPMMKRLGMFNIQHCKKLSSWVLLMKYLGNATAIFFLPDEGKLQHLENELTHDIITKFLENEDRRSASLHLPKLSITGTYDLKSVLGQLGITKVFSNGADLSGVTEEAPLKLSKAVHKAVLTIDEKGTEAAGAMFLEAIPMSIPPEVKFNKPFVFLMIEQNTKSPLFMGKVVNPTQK
binder,measurement,setting,value
Tissue plasminogen activator (enzyme) SYQVICRDEKTQMIYQQHQSWLRPVLRSNRVEYCWCNSGRAQCHSVPVKSCSEPRCFNGGTCQQALYFSDFVCQCPEGFAGKCCEIDTRATCYEDQGISYRGTWSTAESGAECTNWNSSALAQKPYSGRRPDAIRLGLGNHNYCRNPDRDSKPWCYVFKAGKYSSEFCSTPACSEGNSDCYFGNGSAYRGTHSLTESGASCLPWNSMILIGKVYTAQNPSAQALGLGKHNYCRNPDGDAKPWCHVLKNRRLTWEYCDVPSCSTCGLRQYSQPQFRIKGGLFADIASHPWQAAIFAKHRRSPGERFLCGGILISSCWILSAAHCFQERFPPHHLTVILGRTYRVVPGEEEQKFEVEKYIVHKEFDDDTYDNDIALLQLKSDSSRCAQESSVVRTVCLPPADLQLPDWTECELSGYGKHEALSPFYSERLKEAHVRLYPSSRCTSQHLLNRTVTDNMLCAGDTRSGGPQANLHDACQGDSGGPLVCLNDGRMTLVGIISWGLGCGQKDVPGVYTKVTNYLDWIRDNMRP,Kd,[1],246 nM
same,koff,[2],0.00787 s⁻¹
Active recombinant TMPRSS2 (transmembrane serine protease 2) (enzyme) not shown,Kd,[1],9.5 nM
same,Kd,[3],17.9 nM
same,Kd,[4],20.8 nM
same,koff,[2],0.00253 s⁻¹
same,koff,[5],0.00324 s⁻¹
same,koff,[6],0.00377 s⁻¹
